Results on two molecules are retold here after patent US20160068860A1, “TRANSGENIC PLANTS” (CONSEJO SUPERIOR DE INVESTIGACIONES CIENTIFICAS (CSIC), priority 2013, published 2016).

Test [1] has as its system PP2CA. The test can be described thus: In vitro phosphatase activity assay with pNPP substrate, PP2CA. The class given is biochemical, Arabidopsis. The note with it: absence of ABA. On the procedure:
(§1) Phosphatase activity was measured using as a substrate either pNPP or phosphorylated ΔC-ABF2, ΔC-ABI5 and SLAC11-186 proteins. For the pNPP substrate, assays were performed in a 100 μl solution containing 25 mM Tris-HCl pH 7.5, 2 mM MnCl2 and 5 mM pNPP. Assays contained 2 μM phosphatase (PP2CA or HAB1), 4 μM receptor and the indicated concentrations of ABA. Phosphatase activity was recorded with a ViktorX5 reader at 405 nm every 60 seconds over 30 minutes and the activity obtained after 30 minutes is indicated in the graphics. In order to obtain phosphorylated ΔCABF2, ΔC-ABI5 and SLAC11-186 proteins, OST1 phosphorylation assays were done basically as described previously (Dupeux et al., 2011 b). ΔC-ABF2 and SLAC11-186 N-terminal fragments were prepared as described (Antoni et al., 2012; Vahisalu et al., 2010). ΔC-ABI5 recombinant protein (amino acid residues 1-200, containing the C1, C2 and C3 target sites of ABA-activated SnRK2s) was expressed in the pETM11 vector as described above. The reaction mixture containing the OST1 kinase and either ΔCABF2, ΔC-ABI5 or SLAC11-186 recombinant proteins were incubated for 50 min at room temperature in 30 μl of kinase buffer: 20 mM Tris-HCl pH 7.8, 20 mM MgCl2, 2 mM MnCl2, and 3.5 μCi of γ-32ATP (3000 Ci/mmol). Thus, OST1 was autophosphorylated and in turn it phosphorylated ΔC-ABF2, ΔC-ABI5 and SLAC11-186 proteins. Next, they were used as substrates of PP2CA that was preincubated (or not) for 10 with PYL4 or PYL4A194T (1:10 phosphatase:receptor ratio) either in the absence or presence of 30 μM ABA. The reaction was stopped by adding Laemmli buffer and the proteins were separated by SDS-PAGE using an 8% acrylamide gel and transferred to an Immobilon-P membrane (Millipore). Radioactivity was detected and quantified using a Phosphorimage system (FLA5100, Fujifilm). After scanning, the same membrane was used for Ponceau staining. The data presented are averages of at least three independent experiments.

The target of test [2] is T1, PP2CA (Arabidopsis thaliana, UniProt O80920+P49598, A194T). The description is as above. The class given is biochemical. Details: made in house; host or cells: E. coli BL21 (DE3). The note with it: for inhibitory effect on the activity of PP2CA with respect to PYL4: absence of ABA, 2 μM phosphatase, 4 μM receptor. On the procedure:
as §1
Target sequence in this assay (P49598 whole entry, one chain of several): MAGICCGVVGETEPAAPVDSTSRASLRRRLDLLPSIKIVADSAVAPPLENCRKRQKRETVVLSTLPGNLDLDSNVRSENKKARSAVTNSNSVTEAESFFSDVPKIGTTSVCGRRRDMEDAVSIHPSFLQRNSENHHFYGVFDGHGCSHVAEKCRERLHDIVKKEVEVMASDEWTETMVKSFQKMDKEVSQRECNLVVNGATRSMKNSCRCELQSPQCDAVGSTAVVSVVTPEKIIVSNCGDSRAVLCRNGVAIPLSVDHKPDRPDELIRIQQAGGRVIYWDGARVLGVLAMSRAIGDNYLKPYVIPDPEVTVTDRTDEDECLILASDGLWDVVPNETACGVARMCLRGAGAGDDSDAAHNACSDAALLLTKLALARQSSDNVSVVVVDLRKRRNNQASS

Test [3] concerns the target T1, PP2CA. The test can be described thus: In vitro reconstitution: PP2CA-mediated dephosphorylation of OST1, ΔC-ABF2, ΔC-ABI5, SLAC1 1-186. Details: made in house; host or cells: E. coli BL21 (DE3). The test is classed as biochemical. The procedure:
as §1, with “Next, they were used as substrates of PP2CA that was preincubated (or not) for 10 with PYL4 or PYL4A194T (1:10 phosphatase:receptor ratio) either in the absence or presence of 30 μM ABA.” left out
Target sequence in this assay (P49598 whole entry, one chain of several): as above

Where [4] appears, read: 30 μM ABA, 1:10 phosphatase:receptor.

B1: PYL4H82R V97A (AtPYL H82 and V97A) (receptor)
chain: MLAVHRPSSAVSDGDSVQIPMMIASFQKRFPSLSRDSTAARFHTHEVGPNQCCSAVIQEISAPISTVWSVVRRFDNPQAYKRFLKSCSVIGGDGDNAGSLRQVHVVSGLPAASSTERLDILDDERHVISFSVVGGDHRLSNYRSVTTLHPSPISGTVVVESYVVDVPPGNTKEETCDFVDVIVRCNLQSLAKIAENTAAESKKKMSL
notes: also called PYL4H82R (found combined with V97A)
Consider B1, for which, in test [1], the “effect on PP2CA activity” value is “did not affect PP2CA activity”.

B2: PYL4A194T: AtPYL4 ABA receptor mutant polypeptide with A194T substitution (SEQ ID NO. 60; nucleic acid SEQ ID NO: 55); also over-expressed in plants (protein, listed as Arabidopsis thaliana)
chain: MLAVHRPSSAVSDGDSVQIPMMIASFQKRFPSLSRDSTAARFHTHEVGPNQCCSAVIQEISAPISTVWSVVRRFDNPQAYKHFLKSCSVIGGDGDNVGSLRQVHVVSGLPAASSTERLDILDDERHVISFSVVGGDHRLSNYRSVTTLHPSPISGTVVVESYVVDVPPGNTKEETCDFVDVIVRCNLQSLAKITENTAAESKKKMSL
B2: the “inhibitory effect on the activity of PP2CA with respect to PYL4” value in test [2] is “around 20%”. Moreover, the “inhibitory effect on the activity of PP2CA with respect to PYL4” value in test [2] (listed as PYL4^A194T) turned out to be 20%. The “inhibition of PP2CA” value in test [2] (presence of 1 μM ABA) is “higher inhibition of PP2CA than PYL4”. In test [3] (setting [4]), the “inhibition of dephosphorylation by PP2CA of ΔC-ABI5 and SLAC1 1-186” value is given as “inhibited better than PYL4”; the “inhibition of dephosphorylation of ΔC-ABF2” value is recorded as “not more effective than PYL4”. Also, the “inhibition of dephosphorylation of ΔC-ABF2, ΔC-ABI5 and SLAC1 1-186, better than PYL4” value in test [3] (0.5-1 μM ABA, 1:1 phosphatase:receptor ratio) was 2-3 fold. For the same molecule, in test [3] (absence of ABA, 1:10 phosphatase:receptor), the “inhibition of dephosphorylation of PP2CA targets, difference to PYL4” value is recorded as “did not find significant differences”. The “protection of OST1 phosphorylation compared to PYL4” value in test [3] (low ABA concentrations, 1:1 phosphatase:receptor ratio) was “improved”.
